The source of these data is the supplement of paper PMC9170038.

The test system of this series is MS2 coat protein. Briefly: apparent KD of MS2 coat protein; designed switch direction (-1 OFF switch, 1 ON switch): -1; higher = weaker reporter binding. An outline of the steps:
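Designed RNA switches with common flanks were made on Illumina chips by stalled E. coli RNA polymerase. Titration with SNAP-549-labelled MS2 coat protein doubled from 0.7 or 1.5 nM up to 3 µM. Apparent KD is each design's median over clusters after curve-fitting normalised fluorescence.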

Where [1] appears, read: input ligand: microRNA oligo, concentration not stated.
The mark [2] stands for this setting: Eterna round: R95, input ligand: FMN 200 uM.
[3] abbreviates: Eterna round: R95, input ligand: microRNA oligo, concentration not stated.
The mark [4] stands for this setting: Eterna round: R95, input ligand: none.

For “CGACUAAACGUGAGGAUAUGCGGUGCCAGAACAUUGCAGAAGGCACAUGAGGAUCACCCAUGUGUGGGAGAAGA [Eternabot (L1) Solution 43] (Eterna round: R97, puzzle: Brourd's mod of Exclusion 4)”, the “apparent KD of MS2 coat protein” value is, setting by setting: (input ligand: FMN 200 uM) 241 nM; (input ligand: none) 103 nM.

In the case of “UCAAAGUCAGGAUAUACAUGAGGAUCACCCAUGUAAAAUUUUAAUUUAAUUUGAAGGUGUAGAAGGGACAAACU [Ex3 #34] (Eterna round: R97, puzzle: Exclusion 3)”, the “apparent KD of MS2 coat protein” value was determined as 39.2 nM (input ligand: FMN 200 uM) and 38.8 nM (input ligand: none).

Consider “GGACCCAAAGGAUAUACUUGAGGAUCACCCAAGUAUGUCGCUUGGGCACGGUAAAGGAGUAGAAGGUUGGGAAA [Esri] (Eterna round: R97, puzzle: Exclusion 3)”, for which the “apparent KD of MS2 coat protein” value stood at 17.6 nM (input ligand: FMN 200 uM) and 14.4 nM (input ligand: none).

Consider “UUAUACAAGCAAAGAUCCCACAUGAGGAUCACCCAUGUGCUCGUCUUAUAAGGUACUGUGACGAAAGUCACGGUACC [Eli 87 + Mat D67 6] (Eterna round: R97, puzzle: Sensor, turn-off variant 1)”, for which the “apparent KD of MS2 coat protein” value is, setting by setting: (input ligand: FMN 200 uM) 42.3 nM; (input ligand: none) 41.6 nM.

“CAUGUGUUAGGAUAUGCACAGAUCUCCUAAUGGAGAUCUGUGCAGAAGGAACAUGAGGAUCACCCAUGUUGAUG [Mod of Brourd 13 - Jieux - Exclusion 4] (Eterna round: R97, puzzle: Exclusion 4)”: the “apparent KD of MS2 coat protein” value reads like this: (input ligand: FMN 200 uM) 129 nM; (input ligand: none) 35.4 nM.

For the sequence “CAUGAGGGAGGAUAUACAUGAGGAUCACCCAUGUAACUGGGAGUAGUUCUUCGUAGUCGUAGAAGGCCUGAGGG [Eternabot (L1) Solution 14] (Eterna round: R97, puzzle: Exclusion 3)”, the “apparent KD of MS2 coat protein” value was determined as 242 nM (input ligand: FMN 200 uM) and 723 nM (input ligand: none).

Consider “CACCCUGAUGACAAAUUACAUGAGGAUCACCCAUGUGCCUCGCAGGAUAUCCCAGCACGUCGCAAGGAGAAGGGCGACGCGCCA [Ralerira] (Eterna round: R96, puzzle: Exclusion NG 3)”, for which the “apparent KD of MS2 coat protein” value runs as follows: (input ligand: FMN 200 uM) 31.5 nM; under setting [1], 23.9 nM; (input ligand: none) 41.3 nM.

As to “AGUCAGGCGGUAGGAUAUCCAAACCGAGUGACCCUUACAUAACAUGAGGAUCACCCAUGUCGGUGGGAGAAGGGCCGUAAGGCA [Mat - Exclusion NG 2 - Mod of JL - D67] (Eterna round: R96, puzzle: Exclusion NG 2)”, the “apparent KD of MS2 coat protein” value (input ligand: FMN 200 uM) amounted to 517 nM, the “apparent KD of MS2 coat protein” value under setting [1] was found to be 349 nM and the “apparent KD of MS2 coat protein” value (input ligand: none) worked out at 113 nM.

On to “CCAGCGUAUGUUAGGAUAUGCUGGUCCUUGGAUCAGCAGAAGGAACAUGAGGAUCACCCAUGUAGAAUCGUUGG [Mod of JL 15 - Jieux - Brourd's mod of Exclusion 4] (Eterna round: R97, puzzle: Brourd's mod of Exclusion 4)”, for which the “apparent KD of MS2 coat protein” value reads like this: (input ligand: FMN 200 uM) 35 nM; (input ligand: none) 20.3 nM.

As for “CAUAUGUUAGGAUAUGCACAGAUCUCCGAAAGGAGAUCUGUGCAGAAGGAACAUGAGGAUCACCCAUGUUGAUG [Mod of Brourd 17 - Jieux - Exclusion 4] (Eterna round: R97, puzzle: Exclusion 4)”, the “apparent KD of MS2 coat protein” value by setting is: (input ligand: FMN 200 uM) 176 nM; (input ligand: none) 34.2 nM.

In the case of “GCAAGGGAAGGAUAUACAUUACGACCGUCAUAGUACCUGCGACAUGAGGAUCACCCAUGUAGAAGGUCCAGCGG [EX2 C.13] (Eterna round: R97, puzzle: Exclusion 2)”, the “apparent KD of MS2 coat protein” value is, setting by setting: (input ligand: FMN 200 uM) 17.4 nM; (input ligand: none) 13.3 nM.

For “CUGAACCCGGUAGGAUAUAUUGUGGGCAAGCAUGGAACAACAUGAGGAUCACCCAUGUAAUUUAGGUAGAAGGGCCAAAAGAUU [Excl-NG2-LRO08] (Eterna round: R96, puzzle: Exclusion NG 2)”, the “apparent KD of MS2 coat protein” value by setting is: (input ligand: FMN 200 uM) 56.8 nM; under setting [1], 52.7 nM; (input ligand: none) 55.3 nM.

In the case of “GUGGUGGGUUUUCCGAGUAACAUGAGGAUCACCCAUGUAUUAGUUUGAUGUAUCAAGCGAAUGGCUCGUCUUAUAUA [JR_SV3TOV1_Sub045] (puzzle: Sensor v3, turn-off variant 1)”, the “apparent KD of MS2 coat protein” value reads like this: under setting [2], 128 nM; under setting [3], 14.5 nM; under setting [4], 107 nM.

“GUCCGGCGUGUAGGAUAUGGUUCCGUUUCGGUUCCAGAAGGACAUGAGGAUCACCCAUGUGCCUGUCGUCGGUCGUCACCGGGC [salish99_ExNG1_r04_220] (Eterna round: R96, puzzle: Exclusion NG 1)”: the “apparent KD of MS2 coat protein” value amounted to 19.5 nM (input ligand: FMN 200 uM), 10.3 nM under setting [1] and 14.8 nM (input ligand: none).

With “AGCUGAGCAGGAUAUACAUGAGGAUCACCCAUGUAUUCUCGAAGGCGCCGCAUAGCAUGUAGAAGGGUUUAGAU [Eternabot (L1) Solution 20] (Eterna round: R97, puzzle: Exclusion 3)”, the “apparent KD of MS2 coat protein” value (input ligand: FMN 200 uM) is 17 nM and the “apparent KD of MS2 coat protein” value (input ligand: none) is 23.2 nM.

For “ACAUGAGGAUCACCCAUGUCUGGCGGGUCCUCUCCGGCUGUUGAGGAUAUAGUUCGGUAUCCGCGCUAGAAGGUGAGGGCCGGC [Aenatbe mod 20] (Eterna round: R96, puzzle: Exclusion NG 3)”, the “apparent KD of MS2 coat protein” value (input ligand: FMN 200 uM) is 21.3 nM, the “apparent KD of MS2 coat protein” value under setting [1] turned out to be 14.6 nM and the “apparent KD of MS2 coat protein” value (input ligand: none) is 16.5 nM.

In the case of “UACUGACAUGAGGAUCACCCAUGUGAGGAUAUUCUCCUGCCAAAUUAAUGGUGGGUGUGAAGAAGGCACAAGGA [EX1 C.12] (Eterna round: R97, puzzle: Exclusion 1)”, the “apparent KD of MS2 coat protein” value (input ligand: FMN 200 uM) worked out at 98 nM and the “apparent KD of MS2 coat protein” value (input ligand: none) is 29.1 nM.

On to “GGGCCCGGAGGAUAUACAAUCCCGGGCCGAAAGGUUUGGGUACAUGAGGAUCACCCAUGUAGAAGGCCGGGCCC [-40.9, -38.2 kcal A 24%, 5b bis,0] (Eterna round: R97, puzzle: Exclusion 2)”, for which the “apparent KD of MS2 coat protein” value (input ligand: FMN 200 uM) came out at 29.1 nM and the “apparent KD of MS2 coat protein” value (input ligand: none) amounted to 17.9 nM.

Turning to “CCCAGUUAGGAAGGAUAUUGUACAUGAGGAUCACCCAUGUAAUAAAUGAGGAUCUCGGAUGUAUACAAGAAGGUCCGGAUAGGC [Ostracism 10 - Jieux - Exclusion NG 2] (Eterna round: R96, puzzle: Exclusion NG 2)”, the “apparent KD of MS2 coat protein” value under setting [1] came to 58.5 nM.

For the sequence “ACAAGCUUUGUUGGGUGGUACAUGAGGAUCACCCAUGUUGCGCUCGUCUUGUGGGCCCGGGCCCGCGGCCCGGGCCC [-41.5, -69.6, A 12%] (Eterna round: R97, puzzle: Sensor, turn-off variant 1)”, the “apparent KD of MS2 coat protein” value (input ligand: FMN 200 uM) was 545 nM and the “apparent KD of MS2 coat protein” value (input ligand: none) worked out at 663 nM.

As to “UAAUAUAGAGGAUAUACAUGAGGAUCACCCAUGUGAGUCCAUUAUGGGAUGAGAUCGGGUAGAAGGCUACGAAU [Eternabot (L2) Solution 28] (Eterna round: R97, puzzle: Exclusion 3)”, the “apparent KD of MS2 coat protein” value was determined as 143 nM (input ligand: FMN 200 uM) and 57.7 nM (input ligand: none).

Regarding “AUAAUGUGAGGAUAUCAGUCGACUAGCGAUAGCUAGUCGACUGAGAAGGUACAUGAGGAUCACCCAUGUAGAUC [E4/20-A4] (Eterna round: R97, puzzle: Exclusion 4)”, the “apparent KD of MS2 coat protein” value (input ligand: FMN 200 uM) amounted to 70.6 nM and the “apparent KD of MS2 coat protein” value (input ligand: none) was determined as 31 nM.

With “CUUUUGUGAGGAUAUUAGUAGUUUAUAAUUGGUGUUAUUGCUGAGAAGGCACAUGAGGAUCACCCAUGUACAAC [JR_Ex4_Sub033] (Eterna round: R97, puzzle: Exclusion 4)”, the “apparent KD of MS2 coat protein” value is, setting by setting: (input ligand: FMN 200 uM) 97.9 nM; (input ligand: none) 37 nM.

Turning to “ACUCGUAACUAGGAUAUCCGAAAUAAACGAGGAGGAGAAGGAGUUACAUGAGGAUCACCCAUGUGAUAUAAAGA [Edtisoed] (puzzle: Exclusion 6)”, the “apparent KD of MS2 coat protein” value is, setting by setting: under setting [2], 47 nM; under setting [3], 15.3 nM; under setting [4], 17.6 nM.

Consider “GAUUAGCAAGCGAGAUCCCACAUGAGGAUCACCCAUGUGCUCGUCUUAUAAAGUACUGUGACGAAAGUCACGGUACA [Mat - Sensor, turn-off var - Eli Mod - D11] (Eterna round: R97, puzzle: Sensor, turn-off variant 1)”, for which the “apparent KD of MS2 coat protein” value reads like this: (input ligand: FMN 200 uM) 17.2 nM; (input ligand: none) 14.8 nM.

For the sequence “AUGGACGCAGGAUAUACAUGAGGAUCACCCAUGUGAGGUAGGUAAGUAGGAAGUGAAGGUAGAAGGGCGAGAGA [JR_Exclu3_Sub096] (puzzle: Exclusion 3)”, under setting [3], the “apparent KD of MS2 coat protein” value amounted to 59.4 nM.

As for “GUCAUCAAACAUGGGAUCAACAUGAGGAUCACCCAUGUUGACAAGUUUUUUGCUCGUCUUAUAAUACGUUUGAUGAC [Mod-Jx] (Eterna round: R97, puzzle: Sensor, turn-off variant 1)”, the “apparent KD of MS2 coat protein” value by setting is: (input ligand: FMN 200 uM) 16.2 nM; (input ligand: none) 15.5 nM.

As for “GCGCCAUCGUGAGAUGGCGUAACUACAUGAGGAUCACCCAUGUAGGAUAUCGAUUGCUUUGCAGUCGAGAAGGGCAUGGUUUGU [JL ENG3 3.86] (Eterna round: R96, puzzle: Exclusion NG 3)”, the “apparent KD of MS2 coat protein” value is, setting by setting: (input ligand: FMN 200 uM) 56.1 nM; under setting [1], 20.2 nM; (input ligand: none) 22.8 nM.

For the sequence “UUUAAACAUGAGGAUCACCCAUGUGAGGAUAUACGAAUGCAGACACACACGGAUGCAAGUAGAAGGCACAACGC [Design #11] (Eterna round: R97, puzzle: Exclusion 1)”, the “apparent KD of MS2 coat protein” value (input ligand: FMN 200 uM) stood at 29.4 nM and the “apparent KD of MS2 coat protein” value (input ligand: none) is 25 nM.

In the case of “AAUAACAGAGGAUAUACUGUUUUAUGUAUUUAUUAUUUUGAACAUGAGGAUCACCCAUGUAGAAGGCUGAUUAA [JMF 48] (puzzle: Exclusion 2)”, the “apparent KD of MS2 coat protein” value under setting [3] was 29.6 nM.
